From patent US6495317B1, “DNA encodingmannose 6-phosphate reductase and recombinants produced therefrom” (Board of Trustees of Michigan State University, priority 1996, dated 2002) come the findings set out here.

One may read the Km as the concentration of substrate that gives half-maximal velocity.

Read-outs that look alike come from different tables or passages of the source.

In data set [1] the test system is mannose 6-phosphate reductase (M6PR). The experiment in a line: Kinetic characterization of purified M6PR (mannose 6-phosphate and NADPH kinetics). It is filed as biochemical, celery (Apium graveolens). Particulars: 30° C., 33 mM Tris-HCl pH 7.5, 3 mM DTT; for Km: read-out: km. The text has this:
Subsequent purification steps were essentially as described in Loescher et al., Plant Physiol. 98:1396-1402 (1992) except for Reactive Yellow 86 (RY86) chromatography. Here the active fraction from the gel filtration step was split in two, and each fraction run separately on the RY86 column as described in Loescher et al., Plant Physiol. 98:1396-1402 (1992). The active fractions were pooled and either diluted by the addition of 0.5 v of column buffer or desalted using centrifugal concentrating devices (30 kD cut-off membranes) and washed with 2 volumes of column buffer. This step was performed to dilute or remove NADPH. The sample was then loaded back onto the RY86 column and activity eluted in a linear gradient between 0 and 0.2 mM NADPH in column buffer. The purified M6PR was desalted and concentrated using centrifugal filtration and was either used immediately for kinetic characterization or stored at −21° C. after adding glycerol (1:1, v:v).

For data set [2] the test system is unchanged. The data set can be described thus: M6PR activity assay (NADPH oxidation), specific activity of purified enzyme. In kind it is biochemical, celery (Apium graveolens). The protocol: Three putative M6PR and one non-positive clone (as determined by antibody screening) were tested for M6PR activity. Duplicate 10 ml cultures of each clone were grown in LB+ampicillin (amp; […]). Once an average OD600 of 0.5 had been attained one culture of each pair was induced by the addition of isopropyl-β-D-thiogalactopyranoside (IPTG; final concentration 10 mM). […] Cultures were maintained at 30° C. for a further 3 h and were harvested at an average OD600 of 1.29±0.02. Cells were pelleted by centrifugation (2000×g for 5 min) and washed twice by resuspending the pellets in 5 ml Tris (100 mM, pH 7.5) containing […], with a centrifugation step between each wash. After the final wash pelleted cells were maintained on ice. Just prior to disruption the cells were resuspended in 4 ml of extraction buffer (100 mM Tris-HCl pH 7.5, […], 10 mM DTT and 0.1% Triton X-100) and transferred to blood dilution vials (American Scientific Products, McGaw Park, Ill.). Cells were ruptured by suspending the vial containing the cells 0.5 cm above the cuphorn probe of a Heat Systems W-385 sonicator (Misonics Farmingdale, N.Y.) and subjecting them to 2 minutes sonication at full power. Coolant was circulated around the vial to maintain the temperature at approximately 4° C. After sonication, 1.5 ml aliquots of the homogenate were centrifuged at 13,000×g for 5 minutes at 4° C. […]

B1: Recombinant M6PR: mannose 6-phosphate reductase purified from IPTG-induced E. coli clone D carrying celery cDNA (SEQ ID NO:2) (protein)
chain: MAITLNSGFKMPVLGLGVWRMDRNEIKNLLLSAINLGYRHFDCAADYKNELEVGEAFKEAFDTDLVKREDLFITTKLWNSDHGHVIEACKNSLKKLQLEYLDLYLIHFPMASKHSGIGTTRSILDDEGVWEVDATISLEATWHEMEKLVEMGLVRSIGISNYDVYLTRDILSYSKIKPAVNQIETHPYFQRDSLIKFCQKYGIAITAHTPLGGALANTERFGSVSCLDDPVLKKLSDKHNKSPAQIVLRWGVQRNTIVIPKSSKTKRLEENINIFDFELSKEDMELIKTMERNQRSNTPAKAWGIDVYA
Take B1: the “Vmax; NADPH” value in data set [1] (9 NADPH concentrations 1-50 μM, mannose 6-phosphate 12 mM) is 6.0 ± 2.3 (2;3) μmol mg prot^−1 min^−1. In addition, the Km was found to be 0.0062 ± 0.0024 mM in data set [1] (9 NADPH concentrations 1-50 μM, mannose 6-phosphate 12 mM, NADPH) and 10.1 ± 1.4 mM in data set [1] (12 M6P concentrations 1-50 mM, saturating NADPH 200 μM, mannose 6-P). Also, in data set [1] (12 M6P concentrations 1-50 mM, saturating NADPH 200 μM), the “Vmax; mannose 6-P” value is listed as 8.0 ± 1.9 (4;6) μmol mg prot^−1 min^−1. For the same molecule, the “average specific activity of the purified enzyme” value in data set [2] (average of three preparations, 1 mU = 1 nmol NADPH oxidized per minute) is on record as 3926±833 mU/mg protein. Moreover, in data set [2] (final two preparations), the “specific activity of the purified enzyme” value is on record as 4441±13 mU/mg.
